This is an account of results in the nanobody polyreactivity screen of Harvey et al. (2022).

This data set is described as follows: yeast display, Sf9 membrane polyspecificity reagent, FACS + sequencing; frameworks hold sequencing errors. Summed up: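 Galactose-induced (36–48 hours) yeast carrying a synthetic nanobody display library were exposed to 10% biotinylated, detergent-solubilized Sf9 membrane reagent at 4 °C for 1 hour. FACS followed streptavidin microbead enrichment, using low and high (top ~1%) gates for expression (anti-HA) and reagent binding (streptavidin). Colony PCR, MiSeq 2 × 250 sequencing and CDR-length filtering followed. Labels for polyreactivity reflect the gate of origin.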
Consider “QVQLVESRGGLVQAGGSLRLSCAASGRTFLYNAMGWYRQAPGKERELVAAITDGGNTYYADSVKGRFTISRDNAKNTVYLHMKSLNPEDTAVYYCNAYVLFYTYFTRGRFDFDYWGQGTQVTVSS”, for which the “polyreactivity (PSR sort gate)” value is reported as “low polyreactivity”.
The result for “QVQLVESRGGLVQAGGSLRLSCAASGRTRFYAMGRYIQAPGKERELVAVINASGDSTYYADSVKGRFTISRDNAKITVYLQMNSLKPEDTAVYYCAGDNRGEYDYWGQGTQVTVSS” reads “low polyreactivity”.
As for “QVQLVESRGGLVQAGGSLRLSCAASGSIFGTNAMGRNRQAPGKERELVAAINSGGSTNYADSVKGRFTISRDNAKNTVYLQMNSLKPEDTAVYYCAADEGLWSPSRNAYDYDYWGQGTQVTVSS”, the entry is “low polyreactivity”.
As for “QVQLVESRGGLVQAGGSLRLSCAASGSIFRGYAMGWYRQAPGKERELVAAIRRGVITNYADSVKGRFTISRDNAKNTVYLQMNSLKPEDTAVYYCYAVRRWRTSQFDYWGQGTLVTVSS”, the entry is “low polyreactivity”.
In the case of “QVQLVESRGGLVQAGGSLRLSCAASGSTFNYYVMGWYRQAPGKERELVAAISRSGTSTYYADSVKGRFTISRDNAKNTVYLQMNSLKPEDTAVYYCAAYQPYYARTELDYWGQGTQVTVSS”, the “polyreactivity (PSR sort gate)” value is listed as “high polyreactivity”.
For “QVQLVESRGGLVQAGGSLRLSCAASGSTFRYYAMGWYRQAPGKERELVATITARGGSTYADSVKGRFTISRDNAKNTVYLQMNSLKPEDTAVYYCAKRYGRYWDSTYSGDYDYWGQGTQVTVSS”, the “polyreactivity (PSR sort gate)” value is “high polyreactivity”.
As for “QVQLVESRGGLVQAGGSLRLSCAASGSTFYIYAMGWYRQAPGKERELVAAIDWNDGSTYYADSVKGRFTISRDNAKNTVYLQMNSLKPEDTAVYYCAAAIYIYRDGTYDYWGQGTQVTVSS”, the entry is “high polyreactivity”; as for “QVQLVESRGGLVQAGGSLRLSCAATGSIFFSNTMGWYRQAPGTEREMVAAITSTGTTNYADSVKGRFTISRDNAKKTVYLQMNSLKPEDTAVFYCAVRARRWRYNYWGQGTQVTVSS”, “high polyreactivity”; as for “QVQLVESRGGLVQAGGSLRLSCASSGFTFSINAMGWYRQAPGNERELVASITWSGGRTYYADSVKGRFTISRDNAKNTVYLQMNSLKPEDTAVYYCAARSYGTSTYDYWGQGTQVTVSS”, “high polyreactivity”.
As for “QVQLVESRGGLVQAGGSLRLSCATSGIFVVYALGWYRQAPGKVRELVAAISSGVSTSYADSVKGRFTISRENAKNTVYLQMNSLKPEDTAVYYCNTLWGHKFIVPFRTREFYYWGQGTQVTVSS”, the entry is “low polyreactivity”; as for “QVQLVESRGGLVQAGGSLRLSCSASGIIFEYYAMGWYRQAPGKERELVAAISSDTSTNYADSVKGRFTISRDNAKNTVYLQMNSLKPEDTAVYYCNADAYYDTYGICVGTDYDYWGQGTQVTVSS”, “low polyreactivity”; as for “QVQLVESRGGLVQARGSLRLSCAASGRTFYPYAMGWYSPAPGKERELVATITGSGTTTYYADSVKGRFTLSRDNGNNTVYLQMNRRKPEDTAVYYSAADVWEVVTPYGTIDDDYWRQGTQVTVSS”, “high polyreactivity”.
The result for “QVQLVESRGGLVQARGSLRLSCAASGSTLFRYTKGWYRQAPGKERELVAAITRSGGNTFYADSVKGRFTISRDNSKNTVYLQMNSLKPEDTAVYYCAARARYVNCQGFDYWGQVTQVTVSS” reads “high polyreactivity”; that for “QVQLVESRGRLVQAGGSLRLSCAASGSIFGTYAMGWYRHAPGKERELVAAISWSDGSTYYADSVKGRFTISRDNAKYTVYLQMNSLKPEATEVYFCSKVYRSIGANVSRYGLSYYYWGQGTQVTVSS”, “low polyreactivity”.
Turning to “QVQLVESRRGLVQAGGSLRLSCAASGSIFSGYVMGRYRKAPGKETELVAAITWSGGRTYYADSVKGRFTISRDYAKNTVYLQMNSLKPEDTAVYYCAKRNIKSSGYYYWGQGTQVTVSS”, the “polyreactivity (PSR sort gate)” value is “high polyreactivity”.
As for “QVQLVESRSGIVQAGRSLRLSCAASGSIFGSYVMGWYRQAPGKERELVAAITVRTGTTYYADSVKGRFTISLDNAKNTVYLQMKRLKPEDTAVYYCDSRYGPKYGYWGQGNQVTVSS”, the entry is “high polyreactivity”.
